Reference: article PMC5438564

Columns and labels:
[1] = target: Fyn (UniProt P39688); test: proximity ligation assay (PLA), Fyn3 + Tau5 antibodies (total tau); conditions: transfected Mapt-/- neurons; n = 16-31 neurons per construct from two experiments; parent: est. 1.0; read off a plot
[2] = target: Fyn (UniProt P39688); test: proximity ligation assay (PLA), Fyn3 + Tau1 antibodies (tau unphosphorylated at S198/S199/S202); conditions: transfected Mapt-/- neurons; n = 16-31 neurons per construct from two experiments; parent: est. 1.0; read off a plot

Substance | ratio to parent [1] | ratio to parent [2]
wildtype 0N4R mouse tau (mTau^WT) P216A; P219A | 0.41 | 1.1
wildtype 0N4R mouse tau (mTau^WT) P233A; P236A | 0.2 | 0.2
wildtype 0N4R mouse tau (mTau^WT) Y18F | 0.3 | 1.7
